Measurements as given in patent US20090123474A1, “COMBINATION OF ANGIOPOIETIN-2 ANTAGONIST AND OF VEGF-A, KDR AND/OR FLTL ANTAGONIST FOR TREATING CANCER” (ASTRAZENECA AB, priority 2005, published 2009).

Legend:
[1] = molecular target: T1, Angiopoietin-2 binding to Tie-2 (Homo sapiens, UniProt O15123); experiment: Competitive binding assay (modified ELISA): inhibition of Angiopoietin-2 binding to Tie-2
T1 construct: purchased R&D Systems, Inc. BT623 (Angiopoietin-2, biotinylated); 313-TI-100 (Tie-2/Fc)
T1 sequence (O15123 19-496): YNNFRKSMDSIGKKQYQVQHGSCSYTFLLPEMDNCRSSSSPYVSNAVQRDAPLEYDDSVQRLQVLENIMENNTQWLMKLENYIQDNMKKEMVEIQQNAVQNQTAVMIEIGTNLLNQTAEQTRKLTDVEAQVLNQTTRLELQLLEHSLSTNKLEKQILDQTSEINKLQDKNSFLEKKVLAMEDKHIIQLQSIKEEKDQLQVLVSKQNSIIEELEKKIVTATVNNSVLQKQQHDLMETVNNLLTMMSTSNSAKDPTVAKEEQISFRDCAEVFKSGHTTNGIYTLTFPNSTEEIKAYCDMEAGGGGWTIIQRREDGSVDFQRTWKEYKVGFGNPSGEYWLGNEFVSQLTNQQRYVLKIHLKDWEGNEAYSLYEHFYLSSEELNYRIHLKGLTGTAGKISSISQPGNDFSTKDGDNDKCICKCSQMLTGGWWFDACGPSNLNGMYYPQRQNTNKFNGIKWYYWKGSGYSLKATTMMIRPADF
Method: As discussed above, Angiopoietin-2 exerts its biological effect by binding to the Tie-2 receptor. Monoclonal antibodies that inhibited Angiopoietin-2/Tie-2 binding were identified by a competitive binding assay using a modified ELISA. The mAb used were products of micro-purification from 50 ml of exhaustive supernatants of the hybridoma pools that were specific for Angiopoietin-2 (see above). 96-well Nunc Immplates™ were coated with 100 μl of recombinant human Tie-2/Fc fusion protein (R&D Systems, Inc., Cat. No. 313-TI-100) at 4 μg/ml by incubating overnight at 4° C. The plates were washed four times using Phosphate Buffer Saline (PBS) with a Skan™ Washer 300 station (SKATRON). The wells were blocked by 100 μl of ABX-blocking buffer (0.5% BSA, 0.1% Tween, 0.01% Thimerosal in PBS) for 1 hour.
Biotinylated recombinant human Angiopoietin-2 (R&D Systems, Inc. Cat. No. […] The plates were incubated at room temperature for two hours before the unbound molecules were washed off. Bound biotinylated Angiopoietin-2 was then detected using 100 μl/well of Streptavidin-HRP conjugate at 1:200 by incubating at room temperature for half an hour. After washing twice, the bound Streptavidin was detected by HRP substrate (R&D Systems, Cat. No. DY998). The plates were incubated for 30 minutes before 450 stop solution (100 μl/well, BioFX, Cat# BSTP-0100-01) was added to terminate the reaction. The light absorbance at 450 nm was determined by a Spectramax Plus reader.
Soluble recombinant Tie-2/Fc fusion protein at 10-fold molar excess to Angiopoietin-2 was used as a positive control. At this concentration, Tie-2/Fc inhibited binding of Angiopoietin-2 to immobilized Tie-2 by 80%.
To quantitate the inhibitory activities of the mAb on Angiopoietin-2 binding to Tie-2, the titer was determined for purified mAbs from the top candidates using a competitive binding assay. Each concentration of the mAb was tested in duplicate. The concentration-response relationship was found by curve fitting using Graphpad Prism™ graphic software (non-linear, Sigmoid curve). The maximal inhibition (efficacy) and IC50 (potency) were calculated by the software.

[2] = molecular target: T2, Angiopoietin-1 (Homo sapiens, UniProt Q15389); experiment: Biacore (SPR) medium resolution screen of mAb binding to Angiopoietin-1
T2 construct: purchased R&D Systems 293-AN-025/CF
T2 sequence (Q15389 16-498): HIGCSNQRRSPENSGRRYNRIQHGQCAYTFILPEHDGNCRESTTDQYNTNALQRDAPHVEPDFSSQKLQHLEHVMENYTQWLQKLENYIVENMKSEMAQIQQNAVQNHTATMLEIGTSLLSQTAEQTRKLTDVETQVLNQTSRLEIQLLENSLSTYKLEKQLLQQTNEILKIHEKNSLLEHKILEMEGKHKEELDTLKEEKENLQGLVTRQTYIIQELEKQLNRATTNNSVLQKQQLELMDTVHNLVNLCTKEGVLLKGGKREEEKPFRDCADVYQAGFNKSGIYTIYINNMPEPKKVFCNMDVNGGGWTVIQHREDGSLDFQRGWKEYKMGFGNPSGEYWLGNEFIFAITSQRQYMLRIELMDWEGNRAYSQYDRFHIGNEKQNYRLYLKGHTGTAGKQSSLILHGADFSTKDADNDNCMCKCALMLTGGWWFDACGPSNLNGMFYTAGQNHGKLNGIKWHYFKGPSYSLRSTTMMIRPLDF
Method: The cross-reactivity of the antibody to Angiopoietin-1 was further investigated by measuring the affinity of the mAbs to Angiopoietin-1. Instead of immobilizing Angiopoietin-1, as described in ELISA-based counter-binding, the mAbs were immobilized to the CM5 Biacore chips, and Angiopoietin-1 in solution was injected for the determination of the on-rate and off-rate. Six mAbs; 3.3.2, 3.31.2, 5.16.3, 5.86.1, 5.88.3 and 3.19.3 were tested.
Label-free surface plasmon resonance (SPR), or Biacore 2000 instrumentation, was utilized to measure antibody affinity to Angiopoietin-1. For this purpose, a high-density goat α-human antibody surface over a CM5 Biacore chip was prepared using routine amine coupling. For developmental experiments, purified mAbs (clones 3.3.2, 3.31.2, 5.16.3, 5.86.1, 5.88.3 and 3.19.3) were diluted to approximately 2.5-3.5 μg/ml in HBS-P running buffer containing 100 μg/ml BSA. The capture level for each mAb was approximately 150 RU. A 5-minute wash followed each capture cycle to stabilize the mAb baseline. A single Angiopoietin-1 sample diluted to 87.4 nM in the running buffer was injected for one minute over all capture surfaces. […] This experiment was repeated by increasing the mAb capture levels to well over 500-600 RU and injecting 380 nM Angiopoietin-1 for one minute. Angiopoietin-1 was again found to bind mAb 3.19.3.

[3] = tested on: human LoVo colon tumour xenografts; format: in vivo; settings: 3.19.3 10 mg/kg 2×wk i.p., Zactima 50 mg/kg/day p.o.
Method: The anti-tumor activity of monoclonal antibody 3.19.3 was evaluated in the LoVo xenograft model of colorectal cancer. Briefly, LoVo cells were cultured in flasks as routine until the cells reached sub-confluence. Immunodeficient 8 week old male NCr nude mice were used. Cell suspensions containing 3×10^6 cells were injected subcutaneously into the right flank of the mice, and after the tumour volume reached 200 mm^3, the mice were randomized in groups and the treatments were initiated. mAb 3.19.3 10 mg/kg in saline was injected intraperitoneally, twice per week for 2 weeks. Zactima™ was treated peroral daily at doses ranging from 25 to 50 mg/kg in water containing 1% Tween80. The dimensions of each tumor were measured twice per week. The volume of the tumor was calculated as: Volume=Length×(Width)^2×0.5 (cm^3).

B1: mAb 3.19.3: fully human anti-Angiopoietin-2 monoclonal antibody, variable regions SEQ ID NO: 5-8; also binds Angiopoietin-1 (antibody, V domains shown)
VH: QVQLVESGGGVVQPGRSLRLSCAASGFTFTNYGMHWGRQAPGKGLEWVAVISHDGNNKYYVDSVKGRFTISRDNSKNTLYLQMNSLRAEDTAVYYCAREGIDFWSGLNWFDPWGQGTLVTVSSA
VL: EIVLTQSPGTLSLSPGERATLSCRASQSITGSYLAWYQQKPGQAPRLLICGASSWATGIPDRFSGSGSGTDFTLTISRLEPEDFAVYYCQQYSSSPITFGQGTRLEIKR
EC50 ([1]; potency, competitive binding of Angiopoietin-2 to Tie-2, purified mAb): 0.7976 µg/mL
Efficacy* ([1]; ratio of bound Angiopoietin-2 with mAb (30 μg/ml) versus without mAb): 0.3945
binding of Angiopoietin-1 to captured mAb ([2]; 87.4 nM Angiopoietin-1, capture level approximately 150 RU): found to bind
binding of Angiopoietin-1 to captured mAb ([2]; 380 nM Angiopoietin-1, capture levels over 500-600 RU): found to bind
tumour inhibition [3]: 48%
